Measurements reported in article PMC9469209, “Structural basis for activation of Arf1 at the Golgi complex” (Cell reports, 2022).

B1: Gea2 (full-length Saccharomyces cerevisiae Gea2) (enzyme, UniProt P39993 1-1459, looked up)
chain: MSDREFVTVDPVTIIIKECINLSTAMRKYSKFTSQSGVAALLGGGSEIFSNQDDYLAHTFNNLNTNKHNDPFLSGFIQLRLMLNKLKNLDNIDSLTILQPFLLIVSTSSISGYITSLALDSLQKFFTLNIINESSQNYIGAHRATVNALTHCRFEGSQQLSDDSVLLKVVFLLRSIVDSPYGDLLSNSIIYDVLQTILSLACNNRRSEVLRNAAQSTMIAVTVKIFSKLKTIEPVNVNQIYINDESYTNDVLKADTIGTNVESKEEGSQEDPIGMKVNNEEAISEDDGIEEEHIHSEKSTNGAEQLDIVQKTTRSNSRIQAYADDNYGLPVVRQYLNLLLSLIAPENELKHSYSTRIFGLELIQTALEISGDRLQLYPRLFTLISDPIFKSILFIIQNTTKLSLLQATLQLFTTLVVILGNNLQLQIELTLTRIFSILLDDGTANNSSSENKNKPSIIKELLIEQISILWTRSPSFFTSTFINFDCNLDRADVSINFLKALTKLALPESALTTTESVPPICLEGLVSLVDDMFDHMKDIDREEFGRQKNEMEILKKRDRKTEFIECTNAFNEKPKKGIPMLIEKGFIASDSDKDIAEFLFNNNNRMNKKTIGLLLCHPDKVSLLNEYIRLFDFSGLRVDEAIRILLTKFRLPGESQQIERIIEAFSSAYCENQDYDPSKISDNAEDDISTVQPDADSVFILSYSIIMLNTDLHNPQVKEHMSFEDYSGNLKGCCNHKDFPFWYLDRIYCSIRDKEIVMPEEHHGNEKWFEDAWNNLISSTTVITEIKKDTQSVMDKLTPLELLNFDRAIFKQVGPSIVSTLFNIYVVASDDHISTRMITSLDKCSYISAFFDFKDLFNDILNSIAKGTTLINSSHDDELSTLAFEYGPMPLVQIKFEDTNTEIPVSTDAVRFGRSFKGQLNTVVFFRIIRRNKDPKIFSKELWLNIVNIILTLYEDLILSPDIFPDLQKRLKLSNLPKPSPEISINKSKESKGLLSTFASYLKGDEEPTEEEIKSSKKAMECIKSSNIAASVFGNESNITADLIKTLLDSAKTEKNADNSRYFEAELLFIIELTIALFLFCKEEKELGKFILQKVFQLSHTKGLTKRTVRRMLTYKILLISLCADQTEYLSKLINDELLKKGDIFTQKFFATNQGKEFLKRLFSLTESEFYRGFLLGNENFWKFLRKVTAMKEQSESIFEYLNESIKTDSNILTNENFMWVLGLLDEISSMGAVGNHWEIEYKKLTESGHKIDKENPYKKSIELSLKSIQLTSHLLEDNNDLRKNEIFAIIQALAHQCINPCKQISEFAVVTLEQTLINKIEIPTNEMESVEELIEGGLLPLLNSSETQEDQKILISSILTIISNVYLHYLKLGKTSNETFLKILSIFNKFVEDSDIEKKLQQLILDKKSIEKGNGSSSHGSAHEQTPESNDVEIEATAPIDDNTDDDNKPKLSDVEKD
notes: Gea2, guanine nucleotide exchange factor for Arf1, Saccharomyces cerevisiae, full length; also called Arf-GEF Gea2; source: Pichia pastoris (KM71H), overexpressed, purified (Ni-NTA, MonoQ, TEV cleavage, Superdex 200 Increase SEC); not shown: His6, N-terminal, cleaved
B2: ΔN17-Arf1 (S. cerevisiae Arf1 lacking its N-terminal amphipathic helix) (domain or fragment, UniProt P11076 18-181, looked up)
chain: MRILMVGLDGAGKTTVLYKLKLGEVITTIPTIGFNVETVQYKNISFTVWDVGGQDRIRSLWRHYYRNTEGVIFVVDSNDRSRIGEAREVMQRMLNEDELRNAAWLVFANKQDLPEAMSAAEITEKLGLHSIRNRPWFIQATCATSGEGLYEGLEWLSNSLKNST
notes: Arf1 GTPase, Saccharomyces cerevisiae, truncated form lacking the N-terminal 17 residues (ΔN17); In the complex Arf1 is nucleotide-free (trapped with alkaline phosphatase); also called nucleotide-free Arf1; Arf1-NF; source: E. coli Rosetta2, purified as previously described (Richardson and Fromme, 2015; Richardson et al., 2012)

Experiments:
[1] = molecular target: the molecule itself; experiment: cryo-EM structure; Gea2 alone, ~5 mg/mL in SEC buffer (20 mM Tris pH 8.0, 150 mM NaCl, 1 mM DTT) with 2 mM fluorinated fos-choline-8; three dimeric conformations (closed/closed, closed/open, open/open)
[2] = molecular target: B1; experiment: cryo-EM structure; Gea2-Arf1 complex: 1 mg Gea2, 5 mg ΔN17-Arf1 and 250 units alkaline phosphatase at 4°C overnight, then SEC (20 mM Tris pH 8.0, 300 mM NaCl, 1 mM DTT); nucleotide-free activation intermediate; ~5 mg/mL with 2 mM fluorinated fos-choline-8; conditions: both partners purified

Binder | stoichiometry N [1] | binding result [2]
B1 | 2 | –
B2 | – | binds
